What was measured:
[1] = target: Isoform 121 of human VEGF-A (Peprotech) (human) (UniProt P15692); assay: ELISA on coated antigen, 0.2 µg/mL, 9E10 detection
[2] = target: Isoform 121 of human VEGF-A (Peprotech) (human) (UniProt P15692); assay: ELISA on coated antigen, 20 µg/mL, 9E10 detection
[3] = target: Isoform 121 of human VEGF-A (Peprotech) (human) (UniProt P15692); assay: ELISA on coated antigen, 2 µg/mL, 9E10 detection
[4] = target: Isoform 121 of human VEGF-A (Peprotech) (human) (UniProt P15692); assay: phage ELISA on coated VEGF-A 121, without KDR-Fc
[5] = target: Isoform 121 of human VEGF-A (Peprotech) (human) (UniProt P15692); assay: phage ELISA on coated VEGF-A 121, competitor KDR-Fc 2 µg/mL
[6] = target: Isoform 121 of human VEGF-A (Peprotech) (human) (UniProt P15692); assay: phage ELISA on native VEGF-A 121
[7] = target: Human VEGF-A treated with DTT (reduced) (human) (UniProt P15692); assay: phage ELISA on DTT-reduced VEGF-A 121
Chain of Human VEGF-A treated with DTT (reduced) (human) (P15692 other isoform, or with tags, fused parts or gaps limits assumed): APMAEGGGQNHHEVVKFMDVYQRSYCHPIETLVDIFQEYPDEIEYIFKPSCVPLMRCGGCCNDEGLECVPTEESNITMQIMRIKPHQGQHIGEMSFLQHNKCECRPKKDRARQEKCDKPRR

Chain of Isoform 121 of human VEGF-A (Peprotech) (human) (P15692 other isoform, or with tags, fused parts or gaps): as the sequence (P15692 other isoform, or with tags, fused parts or gaps limits assumed) above

B1: Fab 2H1-32 (Fab, V domains shown)
VH: QVQLVQSGAEVKKPGESLKISCKGSGYSFTSYWIGWVRQMPGKGLEWMGIIYPGDSDTRYSPSFQGQVTISADKSISTAYLQWSSLKASDTAMYYCARLVVRDTEIWGQGTMVTVSS
VL: QAVVTQEPSLTVSPGGTVTLTCASSIGAVTSGNYPNWFQQRPGQPPRALIYSTSNKHSWTPARFSGSLLGGKAALTLSGAQPEDEAEYYCLLSYSGARPVFGGGTKLTVLG
How did the Optical Density (492 nm) [1] turn out when B1 was run?
Its Optical Density (492 nm) is 0.675 OD 492 nm.

And the Optical Density (492 nm) [2]?
The Optical Density (492 nm) was 1.02 OD 492 nm.

And the Optical Density (492 nm) [3]?
The Optical Density (492 nm) was 1.09 OD 492 nm.

B2: phage clone 2H1-F (scFv, not shown: large carriers; small tags and cut ends)
scFv: QQVQLVQSGAEVKKPGESLKISCKGSGYSFTSYWIGWVRQMPGKGLEWMGIIYPGDSDTRYSPSFQGQVTISADKSISTAYLQWSSLKASDTAMYYCARLVVRDTEIWGQGTMVTVSSAPQAKSSGSGSESKVDQAVVTQEPSLTVSPGGTVTLTCASSIGAVTSGNYPNWFQQRPGQPPRALIYSTSNKHSWTPARFSGSLLGGKAALTLSGAQPEDEAEYYCLLSYSGARPVFGGGTKLTVLG
How did the Optical Density (492 nm) [4] turn out when B2 was run?
The Optical Density (492 nm) was 1.15 OD 492 nm.

What about the Optical Density (492 nm) [5] of the same binder?
Its Optical Density (492 nm) is 0.577 OD 492 nm.

What about the Optical Density (492 nm) [6] of the same binder?
The Optical Density (492 nm) was 1.25 OD 492 nm.

What about the Optical Density (492 nm) [7] of the same binder?
Its Optical Density (492 nm) is 0.103 OD 492 nm.
